# Laboratory results as given in PMC9482650, “Quantitative fragmentomics allow affinity mapping of interactomes” (Nature Communications, 2022).
# B1: HBV-HBc, P03193 (peptide)
# chain: RRRRSQSRESQC
# B2: SBF1, O95248 (peptide)
# chain: DRIQSCLSDA
# B3: NECTIN1, Q15223 (peptide)
# chain: SFISKKEWYV
# Target: T1, ARHGAP21, Q5T5U3
# T1 sequence (Q5T5U3 45-169, limits assumed, looked up): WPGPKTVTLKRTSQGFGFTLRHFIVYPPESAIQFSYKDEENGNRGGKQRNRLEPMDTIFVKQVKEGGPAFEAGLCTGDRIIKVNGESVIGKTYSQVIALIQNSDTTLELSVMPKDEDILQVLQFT
# Test: holdup assay
# Set-up: key: below the threshold = too weak to quantify, mostly under pKd 3.1 to 4
# Conditions: plain residues with an end cap or a label only (N-terminal biotin on a linker: (peg)3)
row,Binder,pKd
1,B1,below the threshold

# Same assay, conditions: plain residues with an end cap or a label only (N-terminal biotin on a linker: ado-ado)
row,Binder,pKd
1,B2,below the threshold
2,B3,4.04

# Target: T2, DFNB31_2, Q9P202
# T2 sequence (Q9P202 274-371, limits assumed, looked up): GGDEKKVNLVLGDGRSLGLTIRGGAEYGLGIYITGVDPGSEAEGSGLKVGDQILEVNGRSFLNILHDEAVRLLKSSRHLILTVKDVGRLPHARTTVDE
# Test: holdup assay
# Set-up: key: below the threshold = too weak to quantify, mostly under pKd 3.1 to 4
# Conditions: plain residues with an end cap or a label only (N-terminal biotin on a linker: (peg)3)
row,Binder,pKd
1,B1,below the threshold

# Same assay, conditions: plain residues with an end cap or a label only (N-terminal biotin on a linker: ado-ado)
row,Binder,pKd
1,B2,below the threshold
2,B3,below the threshold

# Target: T3, DFNB31_3, Q9P202
# T3 sequence (Q9P202 811-907, limits assumed, looked up): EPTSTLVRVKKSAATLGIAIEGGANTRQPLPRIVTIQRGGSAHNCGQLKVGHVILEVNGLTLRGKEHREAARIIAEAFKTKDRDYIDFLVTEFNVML
# Test: holdup assay
# Set-up: key: below the threshold = too weak to quantify, mostly under pKd 3.1 to 4
# Conditions: plain residues with an end cap or a label only (N-terminal biotin on a linker: (peg)3)
row,Binder,pKd
1,B1,below the threshold

# Same assay, conditions: plain residues with an end cap or a label only (N-terminal biotin on a linker: ado-ado)
row,Binder,pKd
1,B2,3.74
2,B3,below the threshold

# Target: T4, DLG3_2, Q92796
# T4 sequence (Q92796 221-321, limits assumed, looked up): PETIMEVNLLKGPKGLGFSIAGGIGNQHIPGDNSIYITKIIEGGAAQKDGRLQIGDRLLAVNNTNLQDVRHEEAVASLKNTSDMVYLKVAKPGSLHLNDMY
# Test: holdup assay
# Set-up: key: below the threshold = too weak to quantify, mostly under pKd 3.1 to 4
# Conditions: plain residues with an end cap or a label only (N-terminal biotin on a linker: (peg)3)
row,Binder,pKd
1,B1,4.56

# Same assay, conditions: plain residues with an end cap or a label only (N-terminal biotin on a linker: ado-ado)
row,Binder,pKd
1,B2,4.19
2,B3,4.11

# Target: FRMPD3, Q5JV73
# Test: holdup assay
# Set-up: key: below the threshold = too weak to quantify, mostly under pKd 3.1 to 4
# Conditions: plain residues with an end cap or a label only (N-terminal biotin on a linker: (peg)3)
# Sequence of FRMPD3, Q5JV73 (Q5JV73 12-100): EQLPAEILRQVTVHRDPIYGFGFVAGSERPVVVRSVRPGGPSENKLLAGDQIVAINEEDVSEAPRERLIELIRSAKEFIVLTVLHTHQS
row,Binder,pKd
1,B1,below the threshold

# Same assay, conditions: plain residues with an end cap or a label only (N-terminal biotin on a linker: ado-ado)
row,Binder,pKd
1,B2,below the threshold
2,B3,3.94

# Target: T5, GRIP1_4, Q9Y3R0
# T5 sequence (Q9Y3R0 467-571, limits assumed, looked up): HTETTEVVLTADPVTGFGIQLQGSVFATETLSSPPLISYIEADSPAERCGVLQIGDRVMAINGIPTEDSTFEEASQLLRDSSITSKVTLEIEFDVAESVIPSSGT
# Test: holdup assay
# Set-up: key: below the threshold = too weak to quantify, mostly under pKd 3.1 to 4
# Conditions: plain residues with an end cap or a label only (N-terminal biotin on a linker: (peg)3)
row,Binder,pKd
1,B1,below the threshold

# Same assay, conditions: plain residues with an end cap or a label only (N-terminal biotin on a linker: ado-ado)
row,Binder,pKd
1,B2,below the threshold
2,B3,below the threshold

# Target: GRIP2_6, Q9C0E4
# Test: holdup assay
# Set-up: key: below the threshold = too weak to quantify, mostly under pKd 3.1 to 4
# Conditions: plain residues with an end cap or a label only (N-terminal biotin on a linker: (peg)3)
# Sequence of GRIP2_6, Q9C0E4 (Q9C0E4 648-740): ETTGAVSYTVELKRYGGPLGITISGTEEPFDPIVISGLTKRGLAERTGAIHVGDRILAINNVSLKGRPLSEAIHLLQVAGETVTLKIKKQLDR
row,Binder,pKd
1,B1,below the threshold

# Same assay, conditions: plain residues with an end cap or a label only (N-terminal biotin on a linker: ado-ado)
row,Binder,pKd
1,B2,below the threshold
2,B3,4.3

# Target: HTRA1, Q92743
# Test: holdup assay
# Set-up: key: below the threshold = too weak to quantify, mostly under pKd 3.1 to 4
# Conditions: plain residues with an end cap or a label only (N-terminal biotin on a linker: (peg)3)
# Sequence of HTRA1, Q92743 (Q92743 360-477): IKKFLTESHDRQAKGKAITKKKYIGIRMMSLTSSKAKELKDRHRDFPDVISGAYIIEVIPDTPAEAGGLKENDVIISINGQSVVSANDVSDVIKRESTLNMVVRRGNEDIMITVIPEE
row,Binder,pKd
1,B1,below the threshold

# Same assay, conditions: plain residues with an end cap or a label only (N-terminal biotin on a linker: ado-ado)
row,Binder,pKd
1,B2,below the threshold
2,B3,5.24

# Target: IL16_1, Q14005
# Test: holdup assay
# Set-up: key: below the threshold = too weak to quantify, mostly under pKd 3.1 to 4
# Conditions: plain residues with an end cap or a label only (N-terminal biotin on a linker: (peg)3)
# Sequence of IL16_1, Q14005 (Q14005 210-306): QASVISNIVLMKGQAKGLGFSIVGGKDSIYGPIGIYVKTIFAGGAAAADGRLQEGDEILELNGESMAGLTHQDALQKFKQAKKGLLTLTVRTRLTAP
row,Binder,pKd
1,B1,below the threshold

# Same assay, conditions: plain residues with an end cap or a label only (N-terminal biotin on a linker: ado-ado)
row,Binder,pKd
1,B2,below the threshold
2,B3,below the threshold

# Target: Inadl_3, Q8NI35
# Test: holdup assay
# Set-up: key: below the threshold = too weak to quantify, mostly under pKd 3.1 to 4
# Conditions: plain residues with an end cap or a label only (N-terminal biotin on a linker: (peg)3)
# Sequence of Inadl_3, Q8NI35 (Q8NI35 359-469): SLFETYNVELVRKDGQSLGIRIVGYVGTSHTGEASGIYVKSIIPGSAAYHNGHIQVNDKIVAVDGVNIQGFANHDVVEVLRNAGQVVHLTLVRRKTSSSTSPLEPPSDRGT
row,Binder,pKd
1,B1,below the threshold

# Same assay, conditions: plain residues with an end cap or a label only (N-terminal biotin on a linker: ado-ado)
row,Binder,pKd
1,B2,below the threshold
2,B3,4.83

# Target: Inadl_4, Q8NI35
# Test: holdup assay
# Set-up: key: below the threshold = too weak to quantify, mostly under pKd 3.1 to 4
# Conditions: plain residues with an end cap or a label only (N-terminal biotin on a linker: (peg)3)
# Sequence of Inadl_4, Q8NI35 (Q8NI35 547-651): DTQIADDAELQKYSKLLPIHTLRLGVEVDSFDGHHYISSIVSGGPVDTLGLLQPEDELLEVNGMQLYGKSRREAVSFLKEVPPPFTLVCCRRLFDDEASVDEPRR
row,Binder,pKd
1,B1,below the threshold

# Same assay, conditions: plain residues with an end cap or a label only (N-terminal biotin on a linker: ado-ado)
row,Binder,pKd
1,B2,below the threshold
2,B3,below the threshold

# Target: LIMK2, P53671
# Test: holdup assay
# Set-up: key: below the threshold = too weak to quantify, mostly under pKd 3.1 to 4
# Conditions: plain residues with an end cap or a label only (N-terminal biotin on a linker: (peg)3)
# Sequence of LIMK2, P53671 (P53671 143-248): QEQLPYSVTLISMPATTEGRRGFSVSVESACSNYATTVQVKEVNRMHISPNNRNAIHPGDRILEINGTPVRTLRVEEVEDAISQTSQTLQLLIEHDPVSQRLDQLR
row,Binder,pKd
1,B1,below the threshold

# Same assay, conditions: plain residues with an end cap or a label only (N-terminal biotin on a linker: ado-ado)
row,Binder,pKd
1,B2,below the threshold
2,B3,below the threshold

# Target: MAGI2_2, Q86UL8
# Test: holdup assay
# Set-up: key: below the threshold = too weak to quantify, mostly under pKd 3.1 to 4
# Conditions: plain residues with an end cap or a label only (N-terminal biotin on a linker: (peg)3)
# Sequence of MAGI2_2, Q86UL8 (Q86UL8 410-522): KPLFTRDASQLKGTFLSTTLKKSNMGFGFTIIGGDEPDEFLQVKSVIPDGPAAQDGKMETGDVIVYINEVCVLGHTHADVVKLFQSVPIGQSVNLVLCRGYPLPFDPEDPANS
row,Binder,pKd
1,B1,4.4

# Same assay, conditions: plain residues with an end cap or a label only (N-terminal biotin on a linker: ado-ado)
row,Binder,pKd
1,B2,below the threshold
2,B3,4.96

# Target: MAGI3_2, Q5TCQ9
# Test: holdup assay
# Set-up: key: below the threshold = too weak to quantify, mostly under pKd 3.1 to 4
# Conditions: plain residues with an end cap or a label only (N-terminal biotin on a linker: (peg)3)
# Sequence of MAGI3_2, Q5TCQ9 (Q5TCQ9 398-503): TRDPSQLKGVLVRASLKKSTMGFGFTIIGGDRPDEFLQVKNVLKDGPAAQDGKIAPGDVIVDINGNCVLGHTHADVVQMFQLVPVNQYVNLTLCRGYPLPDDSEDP
row,Binder,pKd
1,B1,4.64

# Same assay, conditions: plain residues with an end cap or a label only (N-terminal biotin on a linker: ado-ado)
row,Binder,pKd
1,B2,below the threshold
2,B3,5.55

# Target: T6, MPDZ_10, O75970
# T6 sequence (O75970 1624-1722, limits assumed, looked up): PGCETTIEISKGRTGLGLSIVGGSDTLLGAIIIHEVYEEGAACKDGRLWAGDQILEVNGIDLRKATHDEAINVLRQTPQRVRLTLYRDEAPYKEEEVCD
# Test: holdup assay
# Set-up: key: below the threshold = too weak to quantify, mostly under pKd 3.1 to 4
# Conditions: plain residues with an end cap or a label only (N-terminal biotin on a linker: (peg)3)
row,Binder,pKd
1,B1,below the threshold

# Same assay, conditions: plain residues with an end cap or a label only (N-terminal biotin on a linker: ado-ado)
row,Binder,pKd
1,B2,below the threshold
2,B3,below the threshold

# Target: T7, MPDZ_12, O75970
# T7 sequence (O75970 1857-1958, limits assumed, looked up): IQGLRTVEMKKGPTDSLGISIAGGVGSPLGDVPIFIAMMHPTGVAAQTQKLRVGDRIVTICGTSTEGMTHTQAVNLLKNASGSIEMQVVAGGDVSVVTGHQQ
# Test: holdup assay
# Set-up: key: below the threshold = too weak to quantify, mostly under pKd 3.1 to 4
# Conditions: plain residues with an end cap or a label only (N-terminal biotin on a linker: (peg)3)
row,Binder,pKd
1,B1,below the threshold

# Same assay, conditions: plain residues with an end cap or a label only (N-terminal biotin on a linker: ado-ado)
row,Binder,pKd
1,B2,3.49
2,B3,below the threshold

# Target: T8, MPDZ_5, O75970
# T8 sequence (O75970 695-796, limits assumed, looked up): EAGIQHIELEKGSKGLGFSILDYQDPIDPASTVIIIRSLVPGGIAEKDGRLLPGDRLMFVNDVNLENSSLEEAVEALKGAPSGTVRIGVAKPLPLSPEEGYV
# Test: holdup assay
# Set-up: key: below the threshold = too weak to quantify, mostly under pKd 3.1 to 4
# Conditions: plain residues with an end cap or a label only (N-terminal biotin on a linker: (peg)3)
row,Binder,pKd
1,B1,below the threshold

# Same assay, conditions: plain residues with an end cap or a label only (N-terminal biotin on a linker: ado-ado)
row,Binder,pKd
1,B2,below the threshold
2,B3,4.61

# Target: T9, MPP7, Q5T2T1
# T9 sequence (Q5T2T1 134-230, limits assumed, looked up): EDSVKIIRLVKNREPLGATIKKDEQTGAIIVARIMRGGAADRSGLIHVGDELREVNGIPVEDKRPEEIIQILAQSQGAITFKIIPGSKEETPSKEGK
# Test: holdup assay
# Set-up: key: below the threshold = too weak to quantify, mostly under pKd 3.1 to 4
# Conditions: plain residues with an end cap or a label only (N-terminal biotin on a linker: (peg)3)
row,Binder,pKd
1,B1,below the threshold

# Same assay, conditions: plain residues with an end cap or a label only (N-terminal biotin on a linker: ado-ado)
row,Binder,pKd
1,B2,below the threshold
2,B3,5.11

# Target: PDLIM1, O00151
# Test: holdup assay
# Set-up: key: below the threshold = too weak to quantify, mostly under pKd 3.1 to 4
# Conditions: plain residues with an end cap or a label only (N-terminal biotin on a linker: (peg)3)
# Sequence of PDLIM1, O00151 (O00151 1-87): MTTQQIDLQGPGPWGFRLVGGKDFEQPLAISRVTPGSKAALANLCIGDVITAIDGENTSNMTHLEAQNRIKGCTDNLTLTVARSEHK
row,Binder,pKd
1,B1,below the threshold

# Same assay, conditions: plain residues with an end cap or a label only (N-terminal biotin on a linker: ado-ado)
row,Binder,pKd
1,B2,below the threshold
2,B3,below the threshold

# Target: T10, PDZD2_2, O15018
# T10 sequence (O15018 329-429, limits assumed, looked up): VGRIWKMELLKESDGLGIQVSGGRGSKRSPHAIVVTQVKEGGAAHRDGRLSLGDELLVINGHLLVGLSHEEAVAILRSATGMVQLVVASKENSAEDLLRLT
# Test: holdup assay
# Set-up: key: below the threshold = too weak to quantify, mostly under pKd 3.1 to 4
# Conditions: plain residues with an end cap or a label only (N-terminal biotin on a linker: (peg)3)
row,Binder,pKd
1,B1,3.88

# Same assay, conditions: plain residues with an end cap or a label only (N-terminal biotin on a linker: ado-ado)
row,Binder,pKd
1,B2,below the threshold
2,B3,5.02

# Target: T11, PDZRN3_1, Q9UPQ7
# T11 sequence (Q9UPQ7 244-349, limits assumed, looked up): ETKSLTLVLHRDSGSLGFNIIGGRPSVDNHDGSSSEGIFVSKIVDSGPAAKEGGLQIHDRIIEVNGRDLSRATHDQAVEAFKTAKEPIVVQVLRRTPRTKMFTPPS
# Test: holdup assay
# Set-up: key: below the threshold = too weak to quantify, mostly under pKd 3.1 to 4
# Conditions: plain residues with an end cap or a label only (N-terminal biotin on a linker: (peg)3)
row,Binder,pKd
1,B1,3.89

# Same assay, conditions: plain residues with an end cap or a label only (N-terminal biotin on a linker: ado-ado)
row,Binder,pKd
1,B2,below the threshold
2,B3,below the threshold

# Target: T12, SNTA1, Q13424
# T12 sequence (Q13424 82-180, limits assumed, looked up): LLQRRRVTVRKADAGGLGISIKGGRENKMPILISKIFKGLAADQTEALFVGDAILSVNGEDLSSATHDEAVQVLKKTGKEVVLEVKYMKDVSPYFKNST
# Test: holdup assay
# Set-up: key: below the threshold = too weak to quantify, mostly under pKd 3.1 to 4
# Conditions: plain residues with an end cap or a label only (N-terminal biotin on a linker: (peg)3)
row,Binder,pKd
1,B1,4.44

# Same assay, conditions: plain residues with an end cap or a label only (N-terminal biotin on a linker: ado-ado)
row,Binder,pKd
1,B2,below the threshold
2,B3,below the threshold

# Target: TJP1_2, Q07157
# Test: holdup assay
# Set-up: key: below the threshold = too weak to quantify, mostly under pKd 3.1 to 4
# Conditions: plain residues with an end cap or a label only (N-terminal biotin on a linker: (peg)3)
# Sequence of TJP1_2, Q07157 (Q07157 181-274): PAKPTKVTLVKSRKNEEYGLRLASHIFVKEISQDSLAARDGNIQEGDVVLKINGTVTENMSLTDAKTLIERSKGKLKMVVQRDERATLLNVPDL
row,Binder,pKd
1,B1,below the threshold

# Same assay, conditions: plain residues with an end cap or a label only (N-terminal biotin on a linker: ado-ado)
row,Binder,pKd
1,B2,below the threshold
2,B3,below the threshold

# Target: T13, TX1BP3, O14907
# T13 sequence (O14907 10-122, limits assumed, looked up): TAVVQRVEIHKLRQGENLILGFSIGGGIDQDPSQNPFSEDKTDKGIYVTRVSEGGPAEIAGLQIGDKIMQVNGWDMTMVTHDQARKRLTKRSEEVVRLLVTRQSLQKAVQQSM
# Test: holdup assay
# Set-up: key: below the threshold = too weak to quantify, mostly under pKd 3.1 to 4
# Conditions: plain residues with an end cap or a label only (N-terminal biotin on a linker: (peg)3)
row,Binder,pKd
1,B1,4.14

# Same assay, conditions: plain residues with an end cap or a label only (N-terminal biotin on a linker: ado-ado)
row,Binder,pKd
1,B2,4.04
2,B3,below the threshold
